Measurements published in paper PMC2603305 (Biochemistry, 2008).
Positions count from the first letter of the chain named. Read-outs that look alike come from different tables or passages of the source. Values belong to the molecule of their own block, whether it stands above or below them.

How the values were obtained:
[1] = tested on: O=C1C(=O)c2ccccc2-c2ccccc21; experiment: steady-state NADPH oxidation kinetics; format: biochemical, Rattus norvegicus
[2] = biological target: T1, Kvβ2 (β-subunit of the voltage-gated potassium channel) (Rattus norvegicus, UniProt P62483); experiment: intrinsic fluorescence titration; format: binding
T1 sequence (P62483 39-367): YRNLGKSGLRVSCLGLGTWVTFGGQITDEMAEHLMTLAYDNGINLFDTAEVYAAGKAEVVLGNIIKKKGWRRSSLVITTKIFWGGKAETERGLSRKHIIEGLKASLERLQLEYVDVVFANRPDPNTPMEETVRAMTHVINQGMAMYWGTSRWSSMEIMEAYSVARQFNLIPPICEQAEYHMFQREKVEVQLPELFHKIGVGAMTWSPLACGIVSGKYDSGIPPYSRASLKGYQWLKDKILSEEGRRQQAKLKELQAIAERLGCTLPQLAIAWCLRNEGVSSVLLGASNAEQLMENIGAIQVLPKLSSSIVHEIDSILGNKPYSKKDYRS

[3] = biological target: T2, Kvβ2:Y90F (Rattus norvegicus, UniProt P62483, Y90F); experiment: intrinsic fluorescence titration; format: binding
T2 sequence (P62483 39-367 Y90F): T1 sequence (P62483 39-367) with Y52F

[4] = biological target: T1, Kvβ2 (β-subunit of the voltage-gated potassium channel); experiment: NADPH oxidation, specific activity at […]; format: biochemical
[5] = biological target: T1, Kvβ2 (β-subunit of the voltage-gated potassium channel); experiment: NADPH oxidation, specific activity at […]; format: biochemical; remark: listed apart in the source
[6] = substrate: O=Cc1ccc([N+](=O)[O-])cc1; experiment: purified protein; details: NADPH active site, Tyr-90 acid-base catalyst; binds after NADPH
[7] = substrate: CC(=O)C=O; experiment: steady-state NADPH oxidation kinetics; format: biochemical, Rattus norvegicus; details: NADPH
[8] = substrate: CC(=O)c1ccc([N+](=O)[O-])cc1; experiment: steady-state NADPH oxidation kinetics; format: biochemical, Rattus norvegicus; details: NADPH active site, Tyr-90 acid-base catalyst

Molecule: Kvβ2 (β-subunit of the voltage-gated potassium channel) (Rattus norvegicus)
Km [1]: 240 ± 140 µM

Molecule: NC(=O)C1=CN([C@@H]2O[C@H](COP(=O)(O)OP(=O)(O)OC[C@H]3O[C@@H](n4cnc5c(N)ncnc54)[C@H](OP(=O)(O)O)[C@@H]3O)[C@@H](O)[C@H]2O)C=CC1 [NADPH]
Kd [2]: 200 ± 5 nM
Kd [3]: 130 ± 11 nM

Specific activity [4]: 0.086 ± 0.019 min⁻¹
Molecule: CCCCC[C@H](O)/C=C/[C@H]1C(=O)C=C[C@@H]1C/C=C\CCCC(=O)O [PGJ2]

Specific activity [5]: 0.044 ± 0.007 min⁻¹
Molecule: CCCCC/C=C\CC(=O)/C=C/C=C\C/C=C\CCCC(=O)O [12-oxoETE]

B1: Kvβ2 (β-subunit of the voltage-gated potassium channel) (Rattus norvegicus) (protein)
chain: T1 sequence (P62483 39-367)
Km [6]: 283 ± 31 µM
kcat [6]: 0.00267 s⁻¹
kcat/Km [6]: 9.83 M⁻¹ s⁻¹
Km [7]: 12000 ± 1000 µM
Km [8]: 209 ± 49 µM
kcat [8]: 0.00153 ± 0.0001 s⁻¹
kcat/Km [8]: 7.67 ± 1.5 M⁻¹ s⁻¹
